The values below come from patent US20230086871A1 (UNIVERSITY OF FREIBURG, published 2023).

The data set deals with the molecule itself. The data set can be described thus: negative-stain transmission electron microscopy and 2D classification of purified His-SYMREM1 (self-assembly).

B1: His-SYMREM1 (purified, recombinant Medicago truncatula SYMREM1 protein) (other)
chain: MEESKNKQLELVDTLTPLPQSESEPREFSYFLEEKEPGNEGTSSSVVKQERVVSDHATSSVDQTTAAGTDTKDSVDRDAVLARVESQKRLALIKAWEENEKTKVENRAYKMQSAVDLWEDDKKASIEAKFKGIEVKLDRKKSEYVEVMQNKIGEIHKSAEEKKAMIEAQKGEEILKVEETAAKFRTRGYQPRRLLGCFSGLRFFS
notes: also called Symbiotic Remorin 1; recombinant SYMREM1; not shown: N-terminal His tag and linker from the pDEST17 Gateway vector
Turning to B1, the binding result is listed as “binds”.
